From paper PMC4860257 (Structure (London, England : 1993), 2016) come the findings set out here.

First the molecules themselves.
B1: GST-tagged talin R9 domain (residues 1655-1822), wild type (domain or fragment, UniProt P26039 1655-1822, looked up)
chain: APGQLECETAIAALNSCLRDLDQASLAAVSQQLAPREGISQEALHTQMLTAVQEISHLIEPLASAARAEASQLGHKVSQMAQYFEPLTLAAVGAASKTLSHPQQMALLDQTKTLAESALQLLYTAKEAGGNPKQAAHTQEALEEAVQMMTEAVEDLTTTLNEAASAAG
B2: GST-tagged talin R9-3Y (E1794Y/E1797Y/Q1801Y) (domain or fragment, UniProt P26039 1655-1822, looked up)
chain: B1 chain with E140Y, E143Y, Q147Y
B3: GST-tagged talin R9-T1812Y (domain or fragment, UniProt P26039 1655-1822, looked up)
chain: B1 chain with T158Y
B4: GST-tagged talin F2F3 domains (residues 196-405) (domain or fragment, UniProt P26039 196-405, looked up)
chain: KFFYSDQNVDSRDPVQLNLLYVQARDDILNGSHPVSFDKACEFAGFQCQIQFGPHNEQKHKAGFLDLKDFLPKEYVKQKGERKIFQAHKNCGQMSEIEAKVRYVKLARSLKTYGVSFFLVKEKMKGKNKLVPRLLGITKECVMRVDEKTKEVIQEWSLTNIKRWAASPKSFTLDFGDYQDGYYSVQTTEGEQIAQLIAGYIDIILKKKKS
B5: His-tagged talin R7R8R9-3Y (E1794Y/E1797Y/Q1801Y) (domain or fragment, UniProt P26039 1357-1822, looked up)
chain: APGQKECDNALRQLETVRELLENPVQPINDMSYFGCLDSVMENSKVLGEAMTGISQNAKNGNLPEFGDAIATASKALCGFTEAAAQAAYLVGVSDPNSQAGQQGLVEPTQFARANQAIQMACQSLGEPGCTQAQVLSAATIVAKHTSALCNSCRLASARTANPTAKRQFVQSAKEVANSTANLVKTIKALDGDFTEENRAQCRAATAPLLEAVDNLSAFASNPEFSSVPAQISPEGRAAMEPIVISAKTMLESAGGLIQTARALAVNPRDPPRWSVLAGHSRTVSDSIKKLITSMRDKAPGQLECETAIAALNSCLRDLDQASLAAVSQQLAPREGISQEALHTQMLTAVQEISHLIEPLASAARAEASQLGHKVSQMAQYFEPLTLAAVGAASKTLSHPQQMALLDQTKTLAESALQLLYTAKEAGGNPKQAAHTQYALYEAVYMMTEAVEDLTTTLNEAASAAG
B6: His-tagged talin R7R8R9-2Y (E1794Y/E1797Y) (domain or fragment, UniProt P26039 1357-1822, looked up)
chain: B5 chain with Y445Q
B7: talin R7R8R9 (residues 1357-1822), wild type, His tag removed, as crystallised (domain or fragment, UniProt P26039 1357-1822, looked up)
chain: B5 chain with Y438E, Y441E, Y445Q

In series [1] the target is His-tagged talin F2F3 domains (residues 196-405), wild type (UniProt P26039 196-405). Kind of series: pull-down.
Series [2] has as its target His-tagged talin F2F3-K322A (UniProt P26039 196-405, K322A). Kind of series: pull-down.
The target of series [3] is His-tagged talin F2F3-K324A (UniProt P26039 196-405, K324A). Kind of series: pull-down.
Series [4] deals with His-tagged talin F2F3-KKR (K272A/K274A/R277A) (UniProt P26039 196-405, K272A | K274A | R277A). Kind of series: pull-down.
Series [5] has as its target His-tagged talin R7R8R9 (residues 1357-1822), wild type (UniProt P26039 1357-1822). Kind of series: pull-down.
In series [6] the target is B6. Kind of series: pull-down.
Series [7] deals with B5. Nature of the series: pull-down.
The series “SEC-MALS” deals with the molecule itself. Kind of series: SEC-MALS. For orientation: SEC sorts molecules by how far they enter the pores of the column.
The series “crystal structure” deals with the molecule itself. Kind of series: crystal structure.

Changes are numbered by the printed parent chain. Names may count otherwise.

For B1, the binding result in [1], in series [2], in [3] and in series [4] was “binds” each time.
Turning to B2, the binding result in series [1] is reported as “binds”.
For B3, the binding result in series [1] was “binds”.
For B4, the binding result in [5], in series [6] and in [7] was “binds” throughout.
Turning to B5, the stoichiometry N (usually the number of molecules, sites or subunits per partner or assembly) in “SEC-MALS” is 2.
Turning to B6, the “stoichiometry N” value in “SEC-MALS” stood at 2.
As for B7, in “crystal structure”, the binding result was “binds”.
